Consider one protein from article PMC1618392, “The crystal structure of superoxide dismutase from Plasmodium falciparum” (BMC Structural Biology, 2006).

This data set concerns the molecule itself. As to the kind of experiment: AUC; sedimentation equilibrium, Beckman Optima XL/I, AN-50Ti rotor; 300 mM NaCl, 50 mM Tris-HCl, pH 7.5.

B1: Plasmodium falciparum cytosolic iron superoxide dismutase (enzyme, Plasmodium falciparum (3D7), UniProt Q8IAY6 1-198, looked up)
chain: MVITLPKLKYALNALSPHISEETLNFHYNKHHAGYVNKLNTLIKDTPFAEKSLLDIVKESSGAIFNNAAQIWNHTFYWDSMGPDCGGEPHGEIKEKIQEDFGSFNNFKEQFSNILCGHFGSGWGWLALNNNNKLVILQTHDAGNPIKDNTGIPILTCDIWEHAYYIDYRNDRASYVKAWWNLVNWNFANENLKKAMQK
notes: cytosolic iron superoxide dismutase of Plasmodium falciparum (3D7), residues 1-198, amplified from genomic DNA; The calculated monomer mass is 23,799 Da; In the crystal Lys198 and the eight residues of the tag are not seen; also called PfFeSOD; PfSOD; source: E. coli BL21-CodonPlus, purified (Ni-NTA, Superdex 75 size exclusion)
Turning to B1, the “stoichiometry N” value came out at 2.

The stoichiometry N is a count of units in the complex or per binding partner.
